# Data taken from patent publication US20250147035A1, “METHODS FOR DETECTION OF POST-TRANSLATIONAL MODIFICATIONS” (Quantum-Si Incorporated, priority 2023, published 2025).
# Primed or numbered codes have the meaning given here. Where no end group is shown, it is not given here. [ ]: non-standard residue; d: D form. pS = N[C@@H](COP(=O)(O)O)C(=O)O; Biotin′ = not defined here
# Columns and labels:
# [1] = tested on: SAKLDEESILKQ-Biotin; assay: Octet binding assay of PTM-specific affinity reagent candidates, SA control peptide; details: SA = […]-Biotin (control); fixed concentration of reagent
# From the text: (§1) This Example characterizes an exemplary phosphorylated threonine recognizer for use in methods of the disclosure.
# [2] = tested on: p[…]-Biotin; assay: Octet binding assay of PTM-specific affinity reagent candidates, pTQR peptide; details: fixed concentration of reagent
# Protocol: (§2) This Example characterizes an exemplary phosphorylated threonine recognizer for use in methods of the disclosure. Octet binding assays at a fixed concentration of PTM-specific affinity reagent candidates were evaluated for binding with phospho-threonine, phospho-serine containing peptides (p[…]-Biotin; p[…]-Biotin; p[…]-Biotin), and control peptides without modifications ([…]-Biotin; […]-Biotin).
# [3] = target: T1, p…-Biotin; assay: Octet (BLI), fixed reagent concentration
# T1 sequence (peptide, phosphothreonine at 1; C-terminal Biotin): TAKLDEESILKQ
# [4] = target: T2, …-Biotin; assay: Octet (BLI), fixed reagent concentration
# T2 sequence (peptide, C-terminal Biotin): TAKLDEESILKQ
# [5] = tested on: phospho-serine (p[…], p[…]); assay: Polarization and Octet binding assays of PM12; details: PM12 fixed concentration
# Protocol: (§3) FIGS. 21A-21E provide data from polarization binding assays using a fixed concentration of PM12 with 2 μM and FITC-labeled peptides (p[…], p[…], p[…], QRFp[…], p[…]).
# as §2
# [6] = tested on: […]-Biotin; assay: Octet binding assay of PTM-specific affinity reagent candidates, TA control peptide; details: fixed concentration of reagent
# From the text: as §1
# [7] = target: T3, pSAKLDEESILKQ-Biotin; assay: Octet (BLI), fixed reagent concentration;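 further: octet binding of candidate PTM-specific affinity reagents, each at one fixed concentration, to biotinylated phospho-Thr or phospho-Ser peptides, with unmodified biotinylated peptides serving as controls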
# T3 peptide: [pS]AKLDEESILKQ-{Biotin′}
# Protocol: Octet binding assays at a fixed concentration of PTM-specific affinity reagent candidates were evaluated for binding with phospho-threonine, phospho-serine containing peptides (p[sequence]-Biotin; p[sequence]-Biotin; p[sequence]-Biotin), and control peptides without modifications ([sequence]-Biotin; [sequence]-Biotin).
# [8] = tested on: pT-ENR and pT-TDY peptides; assay: Two-stage chip run, phospho-threonine peptides spiked in the CDNF libraries; assay type: binding
# Protocol: (§4) Using the two-stage recognition run format described above, PTM recognition of phospho-threonine in various peptide motifs was evaluated. Phospho-threonine detection by the PTM-specific affinity reagent in different peptide motifs was evaluated with unphosphorylated threonine ([…], […], […], […], and […]) and compared to their phosphorylated threonine counterparts (QRF-pT-LAYPDDD, RFL-pT-LAYPDDD, FLA-pT-LAYPDDD, LAQ-PT-LAYPDDD, and AQR-pT-LAYPDDD). […] The PTM-specific affinity reagent was also evaluated for its ability to detect phospho-threonine residues at different positions in peptides. […] Similar results were obtained by performing the same two-stage chip run on phospho-threonine peptides spiked in the CDNF libraries (FIGS. 19A-19H).
# [9] = tested on: phospho-threonine peptides; assay: Two-stage on-chip recognition run, phospho-threonine peptides; assay type: binding
# Protocol: (§5) The phospho-threonine-specific affinity reagent, PM12, was evaluated for its ability to bind phospho-threonine residues residing in a range of motifs and at different positions in peptides (FIG. 15). To evaluate the PTM-specific affinity reagent, two-stage on-chip recognition runs were performed as described in Example 3. […] Peptide sequencing following PTM detection was not affected for either peptide (FIGS. 16A-16C).
# (§6) This was followed by a second stage in which reagents for peptide sequencing (amino acid recognition molecules, cleaving reagents) were added to the chip to determine sequence information for the single peptide molecules. The plots shown at the top of FIGS. 16B and 16C are stacked plots showing the number of apertures (y-axis) with recognition taking place on the chip over the course of two-stage recognition runs (x-axis) performed in parallel with peptides having unphosphorylated threonine (FIG. 16B) or phosphorylated threonine (FIG. 16C). Each plot shown at the bottom of FIGS. 16B and 16C is an example binding trace from a single aperture on the chip.
# as §4
# [10] = tested on: EFLN-pT-RFYK; assay: Octet binding platform, peptide-coated sensors dipped in PM12; details: phospho-threonine in the middle of the peptide
# From the text: (§7) Next, control peptides ([…] and […]) were compared to model peptides (EFLN-pT-RFYK and p[…]) to evaluate phospho-threonine detection in different peptide motifs using a post-translational modification-specific (PTM-specific) affinity reagent that binds to phospho-threonine (PM12). Using the Octet binding platform, Octet sensors were coated with the peptide of interest and dipped in buffer containing the PTM-specific affinity reagent. […] In contrast, no shift was detected with the corresponding control peptides having unphosphorylated threonine (FIGS. 14A-14B).
# [11] = tested on: pT-[…]; assay: as above; details: phospho-threonine at the N-terminus
# From the text: as §7
# [12] = tested on: phospho-tyrosine (p[…]); assay: Polarization binding assays of PM12; details: FITC-labeled peptide, PM12 2 μM
# Protocol: as §3, §2
# [13] = tested on: unphosphorylated threonine peptides; assay: Two-stage on-chip recognition run, unphosphorylated threonine peptides; assay type: binding
# Protocol: as §5, §6, §4
# [14] = tested on: […]; assay: Octet binding platform, peptide-coated sensors dipped in PM12, control peptide; details: unphosphorylated threonine
# From the text: as §7
# [15] = tested on: EFLNTRFY; assay: as above; details: unphosphorylated threonine
# From the text: as §7
# [16] = tested on: phospho-threonine peptides (p[…], QRFpTLAYPDDD, p[…]); assay type: binding
# [17] = tested on: p[…]-Biotin; assay: Octet binding assay of PTM-specific affinity reagent candidates, pTA peptide; details: fixed concentration of reagent
# From the text: as §1
molecule,measurement,setting,value
PM12 (Mycobacterium tuberculosis/FhaA) (other) MGSAGTSVTLQLDDGSGRTYQLREGSNIIGRGQDAQFRLPDTGVSRRHLEIRWDGQVALLADLNSTNGTTVNNAPVQEWQLADGDVIRLGHSEIIVRMH,"Octet binding assay response, SA",[1],0.6
same,"Octet binding assay response, pTQR",[2],7.1
same,Octet binding assay response,[3],6.9
same,Octet binding assay response,[4],0.6
same,binding for phospho-serine,[5],low binding
same,"Octet binding assay response, TA",[6],0.6
same,Octet binding assay response,[7],0.7
same,discrimination of phosphorylated and unphosphorylated CDNF peptides,[8]; in the same run,able to discriminate between phosphorylated and unphosphorylated CDNF peptides
same,binding to phospho-threonine CDNF peptides,[8]; peptide traces,binding to pT-ENR and pT-TDY peptides
same,phospho-threonine detection in different peptide motifs,"[9]; QRF-pT-, RFL-pT-, FLA-pT-, LAQ-pT-, AQR-pT-LAYPDDD, first 30 minutes",able to detect phospho-threonine in all five peptide motifs tested
same,pulsing in the first 30 minutes,[9]; model peptide RFL-pT-LAYPDDD,fast pulsing
same,recognition of phospho-threonine at different positions in peptides,[9]; pulsing in the first 30 minutes,"recognized phospho-threonine residues at the N-terminus, the C-terminus, and in the middle of peptides"
same,Octet shift,[10],6.8
same,Octet shift,[11],4.4
same,binding for phospho-tyrosine,[12],low binding
same,signal for unphosphorylated threonine residues at corresponding positions,"[13]; N-terminus, C-terminus, middle",no signal was observed
same,signal with unphosphorylated peptide motifs,"[13]; QRFT-, RFLT-, FLAT-, LAQT-, AQRT-LAYPDDD",no signal was detected
same,pulsing in the first 30 minutes,[13]; control peptide […],no pulsing
same,Octet shift,[14],no shift
same,Octet shift,[15],no shift
same,specificity for phospho-threonine,"[16]; FITC-labeled peptides, PM12 2 μM",high specificity for phospho-threonine
same,preference for phospho-threonine location in the peptide,"[16]; internal vs N-terminal phospho-threonines, […]",slight preference for internal phospho-threonines
same,"Octet binding assay response, pTA",[17],6.9
